The target of one assay is MAb ALP98. Put plainly: ELISA. The conditions noted are these: parent: est. 100; read off a plot.
Assay [1] deals with AP33 heavy chain mutant I95 (human-mouse chimeric AP33, residue changed to alanine) (mouse | human). Put plainly: ELISA.
In assay [2] the target is AP33 heavy chain mutant Y53 (human-mouse chimeric AP33, residue changed to alanine) (mouse | human). Put plainly: ELISA.
Assay [3] concerns the target AP33 light chain mutant D94 (human-mouse chimeric AP33, residue changed to alanine) (mouse | human). Put plainly: ELISA.
In assay [4] the target is AP33 light chain mutant V93 (human-mouse chimeric AP33, residue changed to alanine) (mouse | human). Put plainly: ELISA.
The target in assay [5] is AP33 light chain mutant N92 (human-mouse chimeric AP33, residue changed to alanine) (mouse | human). Put plainly: ELISA.
In assay [6] the target is AP33 light chain mutant N30 (human-mouse chimeric AP33, residue changed to alanine) (mouse | human). Put plainly: ELISA.
In assay [7] the target is AP33 light chain mutant Y28 (human-mouse chimeric AP33, residue changed to alanine) (mouse | human). Put plainly: ELISA.
Assay [8] has as its target AP33 heavy chain mutant T97 (human-mouse chimeric AP33, residue changed to alanine) (mouse | human). Put plainly: ELISA.
Assay [9] deals with broadly neutralizing anti-E2 murine monoclonal antibody AP33 (IgG). Put plainly: competition ELISA. The conditions noted are these: peptide 10 µg/ml (highest concentration); binding to E2661 read; parent: est. 5; read off a plot.
Assay [10] addresses soluble HCV E2 that lacks the transmembrane domain (E2_(661)), monomeric (Hepatitis C virus genotype 1a strain …, UniProt P27958). Put plainly: SPR. The conditions noted are these: both partners purified.

For E2 WT S424A, the percent of parent with MAb ALP98 was determined as 96%.
Turning to “E2 (as tested on wild type and mutant AP33 in Table 1) (from UniProt P27958 384-746) (natural protein)”, the Relative strength of binding (%) (% of binding to WT AP33) worked out at 10 in [1]; 100 in [2]; 74 in assay [3]; 79 in assay [4]; 60 in [5]; 89 in assay [6]. The Relative strength of binding (%) (% of binding to WT AP33) in assay [7] was 112; in assay [8], 101.
For the molecule E2 WT I414A, in the assay with MAb ALP98, the percent of parent was found to be 96%.
E2 412-423 WT peptide W420R: in assay [9], the other: E2 Binding (%) remaining after peptide competition worked out at 86%.

B1: broadly neutralizing anti-E2 murine monoclonal antibody AP33 (IgG) (antibody, V domains shown)
VH: EVQLQESGPSLVKPSQTLSLTCSVTGDSITSGYWNWIRKFPGNKLEYMGYISYSGSTYYNLSLRSRISITRDTSKNQYYLQLNSVTTEDTATYYCALITTTTYAMDYWGQGTSVTVSS
VL: NIVLTQSPVSLAVSLGQRATISCRASESVDGYGNSFLHWFQQKPGQPPKLLIYLASNLNSGVPARFSGSGSRTDFTLTIDPVEADDAATYYCQQNNVDPWTFGGGTKLEIK
As for B1, in [10], the affinity, expressed as Kd, was 3.4 nM; the koff turned out to be 0.000542 s⁻¹; the kon is 160000 M⁻¹ s⁻¹.

The values are drawn from PMC7794244, “Development of a structural epitope mimic: an idiotypic approach to HCV vaccine design” (NPJ Vaccines, 2021).
